According to PMC4770236:
Values belong to the molecule of their own block, whether it stands above or below them.

Legend:
[1] = target: TRF2 (Telomeric Repeat-binding Factor 2), full length (human); test: ITC
[2] = target: TRFH domain of TRF2 (TRF2 dimerization domain) (human); test: ITC
[3] = target: TRF2 (Telomeric Repeat-binding Factor 2), full length (human); test: SEC-MALS + ITC
[4] = target: TRF2 (Telomeric Repeat-binding Factor 2), full length (human); test: SAXS
[5] = target: TRF2 (Telomeric Repeat-binding Factor 2), full length (human); test: ITC; remark: listed apart in the source
RAP1 = target: T1, RAP1 (human, UniProt Q9NYB0 1-399); test: ITC
T1 sequence: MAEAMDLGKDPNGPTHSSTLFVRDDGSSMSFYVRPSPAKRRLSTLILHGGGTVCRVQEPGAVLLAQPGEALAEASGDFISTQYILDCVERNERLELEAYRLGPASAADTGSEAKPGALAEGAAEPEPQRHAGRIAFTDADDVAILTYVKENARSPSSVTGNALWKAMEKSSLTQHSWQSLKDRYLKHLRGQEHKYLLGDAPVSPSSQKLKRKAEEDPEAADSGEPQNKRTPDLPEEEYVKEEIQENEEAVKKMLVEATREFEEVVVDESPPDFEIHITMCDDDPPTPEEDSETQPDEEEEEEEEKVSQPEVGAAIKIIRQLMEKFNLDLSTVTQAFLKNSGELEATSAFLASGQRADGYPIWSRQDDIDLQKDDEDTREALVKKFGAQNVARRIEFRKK

Molecule: TRF2 (Telomeric Repeat-binding Factor 2), full length (natural protein)
stoichiometry N [3]: 2
stoichiometry N [4]: 2

B2: T2-S1-S2 (T2AG3 duplex) (dsDNA)
DNA 1: CTAGGGTTAGGGTTAG
DNA 2: CTAACCCTAACCCTAG
binding result (RAP1): no binding

The next lines start with the values.

Kd [1]: 46 nM
Kd [2]: 59 nM
Molecule: Apollo-YLP peptide (Apollo residues 494-511)

KD of the high affinity site (two-independent sites model) [5]: < 1 nM
KD of the lower affinity site (two-independent sites model) [5]: 500 nM
B1: RAP1 (Repressor Activator Protein 1), full length (natural protein)
chain: MAEAMDLGKDPNGPTHSSTLFVRDDGSSMSFYVRPSPAKRRLSTLILHGGGTVCRVQEPGAVLLAQPGEALAEASGDFISTQYILDCVERNERLELEAYRLGPASAADTGSEAKPGALAEGAAEPEPQRHAGRIAFTDADDVAILTYVKENARSPSSVTGNALWKAMEKSSLTQHSWQSLKDRYLKHLRGQEHKYLLGDAPVSPSSQKLKRKAEEDPEAADSGEPQNKRTPDLPEEEYVKEEIQENEEAVKKMLVEATREFEEVVVDESPPDFEIHITMCDDDPPTPEEDSETQPDEEEEEEEEKVSQPEVGAAIKIIRQLMEKFNLDLSTVTQAFLKNSGELEATSAFLASGQRADGYPIWSRQDDIDLQKDDEDTREALVKKFGAQNVARRIEFRKK
